These results are taken from the supplement of paper PMC7877785.

± gives the uncertainty stated by the source.

A short description of the data set: self-splicing fitness, log relative to wild type (ln ratio); higher = more splicing; Tetrahymena group I intron in knt gene, E. coli kanamycin selection, DiMSum; sequences stand for … in CUCUCU…GGAGGGAAAAGUUAUCAGGCAUGCACCUGGUAGCUAGUCUUUAAACCAAUAGAUUGCAUCGGUUUAAAAGGCAAGACCGUCAAAUUGCGGGAAAGGGGUCAACAGCCGUUCAGUACCAAGUCUCAGGGGAAACUUUGAGAUGGCCUUGCAAAGGGUAUGGUAAUAAGCUGACGGACAUGGUCCUAACCACGCAGCCAAGUCCUAAGUCAACAGAUCUUCUGUUGAUAUGGAUGCAGUUCACAGACUAAAUGUCGGUCGGGGAAGAUGUAUUCUUCUCAUAAGAUAUAGUCGGACCUCUCCUUAAUGGGAGCUAGCGGAUGAAGUGAUGCAACACUGGAGCCGCUGGGAACUAAUUUGUAUGCGAAAGUAUAUUGAUUAGUUUUGGAGUACUCGUGGUCG
Summed up: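 Six replicate transformations of E. coli BL21(DE3) with a pET-22b(+) library were grown overnight at 37°C or 30°C. The library randomised all eight P1ex-region intron nucleotides, the intron lying in the knt kanamycin-resistance gene, and plates were LB agar with or without 25 μg/mL kanamycin plus 100 μg/mL carbenicillin, 50 μM IPTG and 0.2% rhamnose. Pooled colonies were amplicon-sequenced on an Illumina HiSeq 2500, and fitness is the DiMSum error-weighted combination of wild-type-normalised replicate fold changes, kanamycin versus none.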

For the sequence CACCAGCAAUAUUACGGAAC, the “self-splicing fitness (ln)” value is -4.01 ± 0.17 (30 °C) and -2.06 ± 0.14 (37 °C).
The like results for GGUAAGCAAUAUUACGCGGA were, in that order, -0.857 ± 0.18 and -2.25 ± 0.2.
Consider GCGCAGCAAUAUUACGACGA, for which the “self-splicing fitness (ln)” value by setting is: (30 °C) 0.345 ± 0.15; (37 °C) -0.247 ± 0.17.
Regarding AUCCAGCAAUAUUACGGACC, the “self-splicing fitness (ln)” value (30 °C) was -1.71 ± 0.13 and the “self-splicing fitness (ln)” value (37 °C) stood at 0.282 ± 0.13.
Consider UCACAGCAAUAUUACGGAAA, for which the “self-splicing fitness (ln)” value (30 °C) is -3.16 ± 0.24 and the “self-splicing fitness (ln)” value (37 °C) was -1.85 ± 0.18.
For CAGAAGCAAUAUUACGAAAG, in that order: -1.29 ± 0.11 and -0.392 ± 0.12.
The like results for GUCUAGCAAUAUUACGCUCU were, in that order, -0.178 ± 0.13 and 1.05 ± 0.15.
Turning to GUUAAGCAAUAUUACGGAGU, the “self-splicing fitness (ln)” value runs as follows: (30 °C) -3.71 ± 0.23; (37 °C) -0.486 ± 0.13.
As for ACAAAGCAAUAUUACGACUG, the “self-splicing fitness (ln)” value was -0.48 ± 0.06 (30 °C) and -0.066 ± 0.09 (37 °C).
For GCCAAGCAAUAUUACGGAGG, in that order: -3.49 ± 0.19 and -1.08 ± 0.16.
On to UUGUAGCAAUAUUACGAGAU, for which the “self-splicing fitness (ln)” value (30 °C) was -2.41 ± 0.33 and the “self-splicing fitness (ln)” value (37 °C) is -2.32 ± 0.31.
As to CGGUAGCAAUAUUACGGGUC, the “self-splicing fitness (ln)” value (30 °C) was -4.51 ± 0.46 and the “self-splicing fitness (ln)” value (37 °C) is -4.33 ± 0.39.
Regarding AGUUAGCAAUAUUACGCACC, the “self-splicing fitness (ln)” value is -1.35 ± 0.15 (30 °C) and -0.000166 ± 0.19 (37 °C).
As for UAACAGCAAUAUUACGCCGG, the “self-splicing fitness (ln)” value runs as follows: (30 °C) -0.84 ± 0.067; (37 °C) -0.697 ± 0.091.
With CCCGAGCAAUAUUACGAAAA, the “self-splicing fitness (ln)” value runs as follows: (30 °C) -2.67 ± 0.46; (37 °C) -1.74 ± 0.42.
As to UAGGAGCAAUAUUACGGGGG, the “self-splicing fitness (ln)” value (37 °C) was -2.74 ± 0.41.
Take ACGCAGCAAUAUUACGAGUU: the “self-splicing fitness (ln)” value runs as follows: (30 °C) -3.67 ± 0.13; (37 °C) -1.6 ± 0.11.
As to CUGCAGCAAUAUUACGAACU, the “self-splicing fitness (ln)” value was -2.75 ± 0.3 (30 °C) and -2.34 ± 0.33 (37 °C).
For the sequence GGUCAGCAAUAUUACGGCGG, the “self-splicing fitness (ln)” value is, setting by setting: (30 °C) -0.828 ± 0.049; (37 °C) -0.274 ± 0.065.
The like results for CUCCAGCAAUAUUACGUUAU were, in that order, -3.58 ± 0.22 and -3.38 ± 0.28.
The like results for UGGUAGCAAUAUUACGUCGU were, in that order, -2.83 ± 0.15 and -1.59 ± 0.16.
Take ACUGAGCAAUAUUACGUCCA: the “self-splicing fitness (ln)” value (30 °C) was -3.1 ± 0.36 and the “self-splicing fitness (ln)” value (37 °C) is -2 ± 0.4.
For GUGCAGCAAUAUUACGCUAU, the “self-splicing fitness (ln)” value is, setting by setting: (30 °C) -2.36 ± 0.15; (37 °C) -1.14 ± 0.12.
On to AUCUAGCAAUAUUACGGGCA, for which the “self-splicing fitness (ln)” value (30 °C) is -1.25 ± 0.15 and the “self-splicing fitness (ln)” value (37 °C) is -0.862 ± 0.18.
For CGUGAGCAAUAUUACGGAGC, where the note is “30 °C”, the “self-splicing fitness (ln)” value is -2.97 ± 0.36.
Turning to CGCCAGCAAUAUUACGACUU, the “self-splicing fitness (ln)” value is -3.35 ± 0.2 (30 °C) and -1.82 ± 0.18 (37 °C).
In the case of CAUUAGCAAUAUUACGAGGC, the “self-splicing fitness (ln)” value (37 °C) was -1.85 ± 0.33.
Turning to ACCAAGCAAUAUUACGCUAC, the “self-splicing fitness (ln)” value (30 °C) was -2.89 ± 0.13 and the “self-splicing fitness (ln)” value (37 °C) is -0.773 ± 0.1.
Consider GUCGAGCAAUAUUACGAAUG, for which the “self-splicing fitness (ln)” value (30 °C) was -4.06 ± 0.35 and the “self-splicing fitness (ln)” value (37 °C) is -0.777 ± 0.2.
The like results for AUACAGCAAUAUUACGCUCU were, in that order, 0.359 ± 0.13 and 0.358 ± 0.16.
As for UCACAGCAAUAUUACGCAUU, the “self-splicing fitness (ln)” value (30 °C) is -2.93 ± 0.22.
Turning to ACCUAGCAAUAUUACGGUGC, the “self-splicing fitness (ln)” value is -1.87 ± 0.074 (30 °C) and -0.926 ± 0.092 (37 °C).
As to UGGGAGCAAUAUUACGAUUC, the “self-splicing fitness (ln)” value reads like this: (30 °C) -4.38 ± 0.27; (37 °C) -2.41 ± 0.21.
For CACAAGCAAUAUUACGUCCC, in that order: -2.13 ± 0.33 and -1.07 ± 0.46.
Regarding GUGAAGCAAUAUUACGUUGC, under “37 °C”, the “self-splicing fitness (ln)” value is -1.92 ± 0.46.
On to GAAGAGCAAUAUUACGGUUA, for which the “self-splicing fitness (ln)” value (30 °C) is -1.49 ± 0.19 and the “self-splicing fitness (ln)” value (37 °C) was -1.27 ± 0.23.
Take CUUCAGCAAUAUUACGCUCU: under “30 °C”, the “self-splicing fitness (ln)” value was -3.79 ± 0.39.
Regarding ACACAGCAAUAUUACGCGCU, the “self-splicing fitness (ln)” value (30 °C) is -0.741 ± 0.059 and the “self-splicing fitness (ln)” value (37 °C) is -0.491 ± 0.068.
For CUGUAGCAAUAUUACGUGUA, in that order: -4.12 ± 0.3 and -2.05 ± 0.21.
For AGAGAGCAAUAUUACGAGCA, in that order: -2.68 ± 0.46 and -1.31 ± 0.27.
The like results for GUUUAGCAAUAUUACGGGUG were, in that order, -2.84 ± 0.21 and -1.53 ± 0.17.
Consider AAUUAGCAAUAUUACGGGCA, for which the “self-splicing fitness (ln)” value was -0.73 ± 0.14 (30 °C) and 0.186 ± 0.11 (37 °C).
For UAUAAGCAAUAUUACGGUUA, in that order: 0.0292 ± 0.084 and 0.311 ± 0.095.
For UCAUAGCAAUAUUACGCGAA, in that order: -2.95 ± 0.23 and -1.51 ± 0.15.
The like results for UACUAGCAAUAUUACGCAGG were, in that order, -1.77 ± 0.14 and -1.49 ± 0.15.
Consider ACGGAGCAAUAUUACGUAUU, for which, under “30 °C”, the “self-splicing fitness (ln)” value was -3.44 ± 0.48.
As to ACGAAGCAAUAUUACGGCCG, the “self-splicing fitness (ln)” value runs as follows: (30 °C) -0.664 ± 0.19; (37 °C) 0.746 ± 0.29.
The like results for AGUUAGCAAUAUUACGCAAU were, in that order, -1.6 ± 0.18 and -2.52 ± 0.29.
For AUAUAGCAAUAUUACGGCUA, the “self-splicing fitness (ln)” value is -0.422 ± 0.1 (30 °C) and -0.506 ± 0.12 (37 °C).
As to UGCCAGCAAUAUUACGUGUG, the “self-splicing fitness (ln)” value by setting is: (30 °C) -1.49 ± 0.052; (37 °C) -1.14 ± 0.071.
The like results for CAGCAGCAAUAUUACGUAUA were, in that order, -2.42 ± 0.18 and -2.81 ± 0.29.
For the sequence UCAGAGCAAUAUUACGCAAU, the “self-splicing fitness (ln)” value by setting is: (30 °C) -2.77 ± 0.24; (37 °C) -3.06 ± 0.35.
As to CCUCAGCAAUAUUACGCCAA, the “self-splicing fitness (ln)” value (30 °C) is -2.26 ± 0.23.
UGUUAGCAAUAUUACGCCCG: the “self-splicing fitness (ln)” value (30 °C) was -0.283 ± 0.18 and the “self-splicing fitness (ln)” value (37 °C) is 0.289 ± 0.22.
UGCCAGCAAUAUUACGCGGC: the “self-splicing fitness (ln)” value (37 °C) was -1.85 ± 0.35.
In the case of AUGCAGCAAUAUUACGUAGG, the “self-splicing fitness (ln)” value was -1.72 ± 0.082 (30 °C) and -1.16 ± 0.11 (37 °C).
The like results for AGGUAGCAAUAUUACGAGGA were, in that order, -3.39 ± 0.034 and -2.43 ± 0.041.
UCGGAGCAAUAUUACGUUCG: the “self-splicing fitness (ln)” value is -1.19 ± 0.17 (30 °C) and -1.27 ± 0.27 (37 °C).
The like results for UACCAGCAAUAUUACGGGCU were, in that order, -2.89 ± 0.14 and -1.96 ± 0.19.
The like results for AGUUAGCAAUAUUACGCUGU were, in that order, -2.3 ± 0.14 and -2.01 ± 0.21.
Turning to UUCCAGCAAUAUUACGCUAU, the “self-splicing fitness (ln)” value is, setting by setting: (30 °C) -2.04 ± 0.085; (37 °C) -0.605 ± 0.083.
On to GCACAGCAAUAUUACGGUUA, for which the “self-splicing fitness (ln)” value was -0.902 ± 0.055 (30 °C) and -0.384 ± 0.059 (37 °C).
With CAACAGCAAUAUUACGGUAG, the “self-splicing fitness (ln)” value (30 °C) was -0.633 ± 0.059 and the “self-splicing fitness (ln)” value (37 °C) is -0.746 ± 0.068.
